{"source": "patent US20220403002A1", "target": "scFv of the anti-GLA antibody, forcibly expressed on M1 cells (Transfectant)", "sequence (scFv, as listed by the source)": "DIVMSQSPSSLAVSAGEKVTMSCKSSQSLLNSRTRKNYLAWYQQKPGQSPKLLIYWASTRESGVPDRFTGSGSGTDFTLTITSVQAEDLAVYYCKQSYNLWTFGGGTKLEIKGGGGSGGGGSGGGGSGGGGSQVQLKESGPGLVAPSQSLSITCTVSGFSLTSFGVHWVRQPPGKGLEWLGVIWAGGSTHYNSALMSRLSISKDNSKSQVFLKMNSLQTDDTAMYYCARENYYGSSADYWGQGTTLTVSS", "experiment": "cell-based or functional assay", "data": [{"substance": "CD19 CAR expressed on human T cells (CD19 CAR-T cells)", "values": [{"measurement": "cell viability rate of M1 cells (in vitro killing assay, control co-culture)", "value": 66.9, "unit": "%"}]}]}
